The stoichiometry N is the number of molecules, sites or subunits per partner or assembly.

Results on two substances are retold here after publication doi:10.1101/2023.01.10.523378.

Assay [1] concerns the target rat CaMKIIα holoenzyme phosphorylated at Thr286 (rat) (UniProt P11275). As to the kind of experiment: high-speed atomic force microscopy.
Assay [2] has as its target rat CaMKIIα holoenzyme (apo, nonphosphorylated) (rat) (UniProt P11275). As to the kind of experiment: high-speed atomic force microscopy.

Values joined by “and” are separate entries in the source; they are usually repeats but may differ in a detail not shown here. Equal values may be shown once.

With “Ca2+/calmodulin (from UniProt P0DP23 1-149) (natural protein)”, the figures for the fraction of Ca2+/CaM bound longer than 60 s in assay [1] and in assay [2] were 77.3% and 41.1%, respectively. Take “rat CaMKIIα holoenzyme (apo, nonphosphorylated) (from UniProt P11275 1-478)”: in assay [2], the stoichiometry N was 12 and 14.
